From article PMC10221132, “DA7R: A 7-Letter Zip Code to Target PDAC” (Pharmaceutics, 2023)
Where a SMILES comes first, the peptide text is derived from it.

What was measured:
erythrocytes = test: Hemolysis assay; format: cell-based; conditions: 5 × 10^7 erythrocytes in 1 mL PBS pH 7.4; 1, 0.5, 0.25 or 0.125 nmoles/10^7 cells; 15 min; Abs 540 nm; relative to Triton X-100 1%; n = 3
Experimental: Hemolysis studies were conducted as described in [48]. Briefly, freshly withdrawn blood samples were centrifuged at 2000× g for 10 min to obtain erythrocytes; the pellet was then washed three times with sterile PBS (pH 7.4). Erythrocytes (5 × 10^7 cells in 1 mL of PBS for each experimental condition) were incubated with the tested compounds at the concentrations of 1, 0.5, 0.25, or 0.125 nmoles/10^7 cells for 15 min. The samples were then centrifuged and the absorbance (Abs) of the supernatant was measured at 540 nm. Triton X-100 1% and PBS were used as positive and negative control, respectively. The percentage of hemolysis was calculated with the following equation:% hemolysis = [(Abssample − AbsPBS)/(AbsTriton X-100 − AbsPBS)] × 100

[1] = Blood stability: hydrolysis of PAPTPL-peptide derivatives in mouse blood; format: in vitro ADME; conditions: heparinized mouse whole blood, 5 µM from 5 mM DMSO stock, 37 °C, 4 h, UHPLC/UV 312 nm, mean of n = 3
Experimental: Procedures involving animals were approved by the University of Padova Ethical Committee for Animal Welfare (OPBA) and by the Italian Ministry of Health (Permit Number 846/2021-PR), and conducted with the supervision of the Central Veterinary Service of the University of Padova, in compliance with Italian Law DL 26/2014, embodying UE Directive 2010/63/EU. Mice were anesthetized and blood was withdrawn from the jugular vein and heparinized. Blood samples (1 mL) were spiked with compound (5 µM; dilution from a 5 mM stock solution in DMSO) and incubated at 37 °C for 4 h (the maximum period allowed by blood stability). Aliquots (100 µL) were taken after 10 min, 30 min, 1 h, 2 h, and 4 h, kept on ice, and treated as follows: blood was mixed with 5 volumes of 0.1%TFA in CH3CN, mixed and sonicated for 2 min, and finally centrifuged for 7 min at 12,000× g; the supernatant was collected and analyzed by UHPLC. Quantitative analyses were carried out by UHPLC (1290 Infinity LC System, Agilent Technologies, Milan, Italy) using a reversed-phase column (Zorbax RRHT Extend C18, 1.8 µm, 50 × 3.0 mm, Agilent Technologies) and a UV diode array detector (190–500 nm), at a flow rate of 0.6 mL/min. Solvents A and B were 0.1% TFA in water and CH3CN, respectively. The gradient for B was as follows: 10% for 1 min, then from 10 to 100% in 8.0 min, 100% for 0.5 min, then from 100% to 10% in 1.5 min. The injection volume was 5 µL. The eluate was preferentially monitored at 312 nm (corresponding to an absorbance maximum of psoralenic compounds). The temperature of the column was kept at 25 °C. Concentration of PAPTPL or its derivatives was determined using the following calibration curve, which correlates peak area at 312 nm (y) with compound concentration in the sample (x): y = 6.3321x. The stability in blood was expressed as % of PAPTPL released relative to the amount of the derivative initially spiked in the sample.

NRP-1 = conditions: surface plasmon resonance; cited from earlier work
Excerpt: (§1) A7R peptide binds to both neuropilin-1 (NRP-1) and vascular endothelial growth factor receptor-2 (VEGFR2/KDR), disrupting their receptor/coreceptor interaction, and impacting, therefore, on angiogenesis and tumor growth. […] Binding of A7R to NRP-1, on the other hand, mainly involves interactions of Arg with the ...

VEGFR2 = conditions: surface plasmon resonance; cited from earlier work
Excerpt: as §1

HPAFII cells = test: Cell uptake of PAPTPL-I-DA7R (HPLC/UV); format: cell-based, human; conditions: 5 µM, 15 min, 37 °C, DMEM without Phenol Red and serum, nmoles/mg total protein, n ≥ 9
Experimental: HPAFII and Pan02 cells were seeded in 6-well plates at a density of 300,000 and 150,000 cells/well, respectively, and grown for 48 h. They were then washed twice with PBS and incubated for 15 min at 37 °C with a solution of 5 µM PAPTPL-I-DA7R in DMEM without Phenol Red and serum. At the end of the incubation, cells were washed twice, 100 µL of PBS were added, and finally the cells were scraped and collected. A volume of 100 µL of CH3CN + 0.1%TFA was added, and the mixture was vortexed and sonicated for 5 min. Samples were finally centrifuged for 5 min at 12,000× g, and the supernatant was collected and the amount of PAPTPL-I-DA7R was quantified by HPLC/UV, as described in Section 2.5 (blood stability). The remaining cell pellets were resuspended in 200 µL of SDS 2%, and the total protein amount of each sample was quantified with the BCA assay. Cell uptake of PAPTPL-I-DA7R was expressed as nmoles of PAPTPL-I-DA7R/total protein.

| Compound | Hemolysis (erythrocytes) | % of conjugate hydrolyzed (PAPTPL released relative to derivative initially spiked) [1] | Affinity for NRP-1 (NRP-1) | Affinity for VEGFR2 (VEGFR2) | Uptake by HPAFII cells relative to cultured Pan02 cells (HPAFII cells) |
| --- | --- | --- | --- | --- | --- |
| CC(C)C[C@@H]1NC(=O)[C@H](Cc2c[nH]c3ccccc23)NC(=O)[C@H]([C@@H](C)O)NC(=O)[C@H](C)NC(=O)[C@H](Cc2cn(CCOCCOCCOCCOCCNC(=O)Oc3ccc(CCCOc4ccc([P+](CCCc5ccc(OCCCCOc6c7ccoc7cc7oc(=O)ccc67)cc5)(c5ccccc5)c5ccccc5)cc4)cc3)nn2)NC(=O)[C@H](CCCNC(=N)N)NC(=O)[C@@H]2CCCN2C(=O)[C@@H]2CCCN2C1=O [PAPTPL-Teg-cA7R] | dramatic increase in the hemolysis | about 50% | – | – | – |
| C#CC[C@@H]1NC(=O)[C@H](CCCNC(=N)N)NC(=O)[C@@H]2CCCN2C(=O)[C@@H]2CCCN2C(=O)[C@H](CC(C)C)NC(=O)[C@H](Cc2c[nH]c3ccccc23)NC(=O)[C@H]([C@@H](C)O)NC(=O)[C@H](C)NC1=O [cA7R] (HELM PEPTIDE1{A.T.W.L.P.P.R.[C#CC[C@H](N[*:1])C(=O)[*:2]]}$PEPTIDE1,PEPTIDE1,1:R1-8:R2$$$V2.0) | completely ineffective towards erythrocytes | – | retain affinity | retain affinity | – |
| CC(C)C[C@@H](NC(=O)[C@H]1CCCN1C(=O)[C@H]1CCCN1C(=O)[C@@H](CCCNC(=N)N)NC(=O)CCCc1cn(CCOCCOCCOCCOCCNC(=O)Oc2ccc(CCCOc3ccc([P+](CCCc4ccc(OCCCCOc5c6ccoc6cc6oc(=O)ccc56)cc4)(c4ccccc4)c4ccccc4)cc3)cc2)nn1)C(=O)N[C@H](Cc1c[nH]c2ccccc12)C(=O)N[C@@H](C(=O)N[C@H](C)C(=O)O)[C@H](C)O [PAPTPL-Teg-DA7R] | increase in the ability of the derivative (PAPTPL-Teg-DA7R) to lyse erythrocytes | about 50% | – | – | – |
| CC[C@H](C)[C@H](NC(=O)Oc1ccc(CCCOc2ccc([P+](CCCc3ccc(OCCCCOc4c5ccoc5cc5oc(=O)ccc45)cc3)(c3ccccc3)c3ccccc3)cc2)cc1)C(=O)N[C@H](CCCNC(=N)N)C(=O)N1CCC[C@@H]1C(=O)N1CCC[C@@H]1C(=O)N[C@H](CC(C)C)C(=O)N[C@H](Cc1c[nH]c2ccccc12)C(=O)N[C@@H](C(=O)N[C@H](C)C(=O)O)[C@H](C)O [PAPTPL-I-DA7R] (HELM PEPTIDE1{[O=C(Oc1ccc(CCCOc2ccc([P+](CCCc3ccc(OCCCCOc4c5ccoc5cc5oc(=O)ccc45)cc3)(c3ccccc3)c3ccccc3)cc2)cc1)[*:2]].I.[dR].[dP].[dP].[dL].[dW].[dT].[dA]}$$$$V2.0) | did not induce any hemolysis | about 30% | – | – | roughly twice as much |
